Measured values as given in IntAct's records for PubMed 22927393.

B1: Epsin-1 (Saccharomyces cerevisiae), Q12518 (parent)
chain: MSKQFVRSAKNLVKGYSSTQVLVRNATSNDNHQVSKDSLIELAEKSYDSADFFEIMDMLDKRLNDKGKYWRHIAKALTVIDYLIRFGSENCVLWCRENLYIIKTLKEFRHEDDEGIDQGQIVRVKAKELTALLSDDERLNEERNMNIKGRNRKGRRRRGTGRSDENDDDLQRAISASRLTAEEDERRRKQDEDYETALQLSKEEEELKRLQDLQRMQQQQGQQQLQQPMYYDIFGNPITPEEYAQFQLQQQQQQQQQQLQQQPMYYDVFGNPITPEELAQFQQQQQLQEQQYLASMQQQQQAMSNNPFAKSEQSSSSPKRNQLVAASSPQQLQQQKQQEPLIQNRTGNQSMTDKYSKLNELLATGTGIDTFGNVGEARIPAQHTKTGTFINSQGTGYRQVSDDPNHNPFLNSQYTGLPSTSVVPTQTGYGFGNQSQQQSQNNGSNNRGYTLIDL
partner: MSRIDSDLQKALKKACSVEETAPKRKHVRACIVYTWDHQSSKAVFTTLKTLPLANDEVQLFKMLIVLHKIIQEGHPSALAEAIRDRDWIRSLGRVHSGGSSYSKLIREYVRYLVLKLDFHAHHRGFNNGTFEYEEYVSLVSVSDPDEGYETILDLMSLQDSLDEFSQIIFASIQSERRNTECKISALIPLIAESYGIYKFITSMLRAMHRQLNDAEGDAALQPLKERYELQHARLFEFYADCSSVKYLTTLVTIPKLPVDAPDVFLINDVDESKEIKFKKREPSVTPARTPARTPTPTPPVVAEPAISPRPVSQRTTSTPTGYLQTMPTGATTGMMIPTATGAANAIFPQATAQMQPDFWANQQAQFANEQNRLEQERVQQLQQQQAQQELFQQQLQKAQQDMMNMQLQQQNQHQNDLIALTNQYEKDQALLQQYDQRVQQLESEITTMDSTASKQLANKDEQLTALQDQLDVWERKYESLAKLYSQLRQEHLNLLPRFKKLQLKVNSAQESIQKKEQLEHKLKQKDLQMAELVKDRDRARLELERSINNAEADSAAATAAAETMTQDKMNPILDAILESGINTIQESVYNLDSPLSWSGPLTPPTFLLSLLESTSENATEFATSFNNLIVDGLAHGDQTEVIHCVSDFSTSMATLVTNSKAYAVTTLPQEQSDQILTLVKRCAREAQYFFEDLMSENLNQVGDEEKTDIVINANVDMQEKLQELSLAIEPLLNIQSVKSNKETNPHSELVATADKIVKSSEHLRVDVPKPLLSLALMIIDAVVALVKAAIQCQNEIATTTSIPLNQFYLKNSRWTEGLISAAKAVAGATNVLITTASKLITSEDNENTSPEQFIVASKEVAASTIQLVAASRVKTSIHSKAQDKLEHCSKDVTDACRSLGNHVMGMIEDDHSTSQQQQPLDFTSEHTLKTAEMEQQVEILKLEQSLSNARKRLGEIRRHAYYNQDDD

Variants of: B1
Settings: with sla2_yeast SLA2, P33338

Row | effect of a mutation on the interaction | Variant
1 | disrupting interaction strength | MSKQFVRSAKNLVKGYSSTQVLVRNATSNDNHQVSKDSLIELAEKSYDSADFFEIMDMLDKRLNDKGKYWRHIAKALTVIDYLIRFGSENCVLWCRENLYIIKALKEFRHEDDEGIDQGQIVRVKAKELTALLSDDERLNEERNMNIKGRNRKGRRRRGTGRSDENDDDLQRAISASRLTAEEDERRRKQDEDYETALQLSKEEEELKRLQDLQRMQQQQGQQQLQQPMYYDIFGNPITPEEYAQFQLQQQQQQQQQQLQQQPMYYDVFGNPITPEELAQFQQQQQLQEQQYLASMQQQQQAMSNNPFAKSEQSSSSPKRNQLVAASSPQQLQQQKQQEPLIQNRTGNQSMTDKYSKLNELLATGTGIDTFGNVGEARIPAQHTKTGTFINSQGTGYRQVSDDPNHNPFLNSQYTGLPSTSVVPTQTGYGFGNQSQQQSQNNGSNNRGYTLIDL [T104A]
